# Data from the DeepSol protein solubility set.
# Test: soluble on expression in E. coli; label from the status in PepcDB or PDB records
row,Sequence,soluble on expression in E. coli
1,SSVSGLKAELKFLASIFDKNHERFRIVSWKLDELHCQFLVPQQGSPHSLPPPLTLHCNITESYPSSSPIWFVDSEDPNLTSVLERLEDTKNNNLLRQQLKWLICELCSLYNLPKHLDVEMLDQPLPTGQNGTTEEVTSEEEEEEEEMAEDIEDLDHYEMKEEEPISGKKSEDEGIEKENLAILEKIRKTQRQDHLNGAVSGSVQASDRLMKELRDIYRSQSYKTGIYSVELINDSLYDWHVKLQKVDPDSPLHSDLQILKEKEGIEYILLNFSFKDNFPFDPPFVRVVLPVLSGGYVLGGGALCMELLTKQGWSSAYSIESVIMQINATLVKGKARVQFGANKNQYNLARAQQSYNSIVQIHEKNGWYTPPKEDG,not soluble
2,MDSQVEGKISPSQKESSSTSGLVSPSEDGPAHQKIHRDQLSVDQIKKIREERAQKRQVRRNSLISQGKDPDFPTPDLQFIERPFLPINHDNSKGLTPATIQVTQDSLDVKIMTYNTLAQTLIRRDFFPESGPALKWHKRSKVLVHELKKYRPDVVSLQEVDYNELNFWQENFHKLGFDVIFKRHEGKTHGLLVAWNNKKFQLDNDWMLDYDNILAGNVISARTRTKNIALIISLYFKGITDSSSRGIIVANTHLFWHPFGVFERLRQSYLVLQKIQEIKACSKYNGWHSLLMGDFNTEPEEPPYLAITKRPLILKGPIRAMVECSLAYRYSKKRNGEESDQDDEECDEKSRGEGHSDQPQNPKPESFTATKEEKALVNQLVALHNSLHVKGVSLYGIGYGKVHPENANGSHGEPGLSNWANTWCGLLDYIFYIEGDHNQDTRQKEPLNAFEGNNNVKIIGYLRMPCAQEMPKHSQPFEGEYASDHISLMCQIRLFFGGEKVHSLK,not soluble
3,MNVVQVEYLNVAEIKALLNSTISKLNPRYTSNYMIVTAILTGARLSEIAGLTWNDINFNFNTININKSYDYFAKSFKPTKNKSSNRIIKINNTLCDVLKELRTNNTDLVFKNKRGLIPTSNAVNKALRARLEELNINRRNFHFHSLRHSHVAFLLSQGIDIYPIAQRLGHSDITTTTRTYAYLIEEYKDKNDAIIIAGLDKLEHHHHHH,not soluble
4,MKIVAVTACPTGIAHTYMAADALTKAAPKYNVQIKVETQGAMGIENPLTPYDLSHADKVLIVSDIDIEQPARFEGMKVVKLSIEEVLLNVDKVFLVHCR,not soluble
5,MGSSHHHHHHSSGLVPRGGSHMSAASSIFDFEVLDADHKPYNLVQHKGSPLLIYNVASKCGYTKGGYETATTLYNKYKSQGFTVLAFPCNQFGGQEPGNEEEIKEFVCTKFKAEFPIMAKINVNGENAHPLYEYMKKTKPGILKTKAIKWNFTSFLIDRDGVPVERFSPGASVKDIEKKLIPLLESTQSA,soluble
6,MHKIRSHSKYIIPRLNKIVEEGDADAVGFEFPVESFKFLE,not soluble
7,MASTGVERRKPLENKVALVTASTDGIGLAIARRLAQDGAHVVVSSRKQENVDRTVATLQGEGLSVTGTVCHVGKAEDRERLVAMAVNLHGGVDILVSNAAVNPFFGNIIDATEEVWDKILHVNVKATVLMTKAVVPEMEKRGGGSVLIVSSVGAYHPFPNLGPYNVSKTALLGLTKNLAVELAPRNIRVNCLAPGLIKTNFSQVLWMDKARKEYMKESLRIRRLGNPEDCAGIVSFLCSEDASYITGETVVVGGGTASRL,soluble
8,MKQTPPLISFITICYNGLDDTCMLIESLRDTISSVSYEIIVVDNASRQDEASLIQERYPFVRTLRSEKNLGFSGGNNLGIQIAQGKYLFLINNDTYLTEDGLPALIERLESDPRIGAVSPKIRFAFPPQSIQFAGYTKLSRYTMRNKALGMGCPDDGTFDTPRPSAYLHGAALMLKREVIWKAGLMPEIYFLYYEELDWCTSMTRAGYQLWYEPRCTIFHKESQSTGRQSPLRTFYMMRNRMLYAWRNLPGMERCLAIAYQMLIVAPKDSLCFVLKGEPKLAKAVWHGVKGFWKLCLEHHHHHH,soluble
9,MAHHHHHHMSEGGRRRKVYGFKAERQAFFSKHVRQTFLEEGRKKKDEERARMEAYRKLCEEEGIVSKRLEDYDRTRKAAKEHLSSTLEQIDYDQSLTNNEKKKRKYNLKRKFAATTVNDLIDKQQKHYSAVSGMEEVQRRQQQEREEKQKARQEREREKQSRVQARKSRNALFAKRTKKGQPAMSSRVESLLQKISWQ,not soluble
10,MGSDKIHHHHHHMSNPLLKQICELDVFTLLVFKSIFDNGHANSAAKALNVSAPKISRCLNALRLTFNDELFYRRQQGLKPTPLAESLYVAICQFTDAVHHLEQSALQLQHSASHVELPLHIAASNGLLSFLAPQLSSPEVISELGQIRLHKWQDNSAELIHAGELDLGITQEPVETKELTITHLGSIASVYIVASKHHPLWESQFDITLEQICRHSFLCLEMKGFNARIDPLELFCQRQGLLLPSIERVIDREEWYAHLLTMQSVAFCSSIDMHTVKHMPGLKLVPLSVSELHRLHETIMPPQYFLIEKPRSHRRYNQTQCELVVRSWLTVLSSNSRVSQ,not soluble
11,MQLKVPEHQVAGHIAKDGKPGPLVDDKGRFFKPLQGDSRGEIEVKFYESFSSNTEVPEHIHRYFPVYHGTQAVEGSDGAAMMVLENLLAEYTKPSVMDVKMGSRTWYPDASEEYIQKCLKKDTGTTTVSSGFRISGFEVYDHKESSFWKPERKLLRGLDVDGARLTLRKFVSSNSLSDTGSKPDSAFASSVYGGSHGILTQLLELKTWFENQTLYHFNSCSILMVYENESILKGNDDDARPQVKLVDFAHVLDGNGVIDHNFLGGLCSFINFIREILQSPDESADS,soluble
12,MEKQLKAMSVSDKPAAPAAQKLGTAPLAAKKTRNEEWGTKVNIDTNIRKLTIKPNQPIYKYAVQVNYVFRKPDGTEATIEMSKSAKKGTEHDNDKTRCQNVYNEAIKRYDELKTGGPFFYDRQASLYTLTKLKNESISFVVTDKICKRQNFKEAQFVLKKVDQSFQSTSNDVIKTTNSCPANADKTLLEAMNIIVSGPAFENKNVITVGACVHYLIDPTGVDVAYKEYPEGQLYSGVGVSKSVKTLEGTDKKVPSLFMTTEMKTTLFHPDYAPLVELLQTFRGFSTTLKANSPAAQRIEKAFVGLDVVLNYGVHKGLGEDGVVMKIRRFHTSAKETCFEVEKSTREFTNVFDYFKKKYGITLKYPDLFTIEAKGKQGKIHFPAEVLLLCPNQTVTNDQMINNEQADMIKMSAAQPHIRKTTTDTIVRNVGLASNNIYGFIKVEDPVNLEGMVLPKPKIAFAGNRLADLANPKSRFPTDFNRAGQYYDAKELTKWELVFVQNEEVQGLAKQLADEMVNNGMKCSNPTMSFIIRGDLEPIFKKAKAAGTQLLFFVVKSRYNYHQQIKALEQKYDVLTQEIRAETAEKVFRQPQTRLNIINKTNMKLGGLNYAIGSEAFNKPNRLIVGFVTSQRVGGNPDYPISVGFAANMLKHHQKFAGGYVYVHRDRDVFGSIIKDTLLTIFKTCTEQRGRPDDILLYFNGVSEGQFSMINEEFSARVKEACMAFQKEGTPPFRPHITIIASSKAHNERLYKSDKGRIVNLEPGTVVDHTIVSNVYTEWYHASAVARQGTAKATKFTLIFTTKAGPQAEPLWHLEQLTNDLCYDHQIVFHPVGLPVPLYIADRYSQRGAMVLAANQGPIYNEGQIDLAATNSAYGYGEKKLFTTRFNA,not soluble
13,MEEVGGNGGPARIAECGKIGSGTINSNVVPSVNLPSPSVKPSVTPSVKKPPHVIRSDYSKPREKPAKVAKKPTVKNDKKPKPVAIVAPTGIIKTFKTTPNPNRNL,soluble
14,MILLFGGTTEGRQAAALCDRLGLPFIYSTKTRVEPFATACGEFRHGALDEAALSELVSSSGVRLVIDAAHPFAARLHRSLFEVCQHLAVRLIRFDRPSVDVPDFEGLHSVADFTEALALLDRLNPAKLLALTGVQSIAPLRPWWEQHDMLLRILPTQASMELARREGIPEAQLLPMNPDSSDEALEKLVRKHGVDCLLAKESGESGFFSSKLRVAERCAIPLIVIRRPPAPAYDVVATSVEELEALLPD,soluble
15,MADSELQSAIGNNEECVNLFSDCDNVFVVAGISPLIDFQNNLNRIENYLCQKKIVGVKLYPGHEQFYLNDPRLESVFLLCEAFDVPVAVHTGWDNPHFNAPALFADIAGKHPKLKIVNCHLWYPKIDYCYEVTRDYQNIYYDISSLADDKGNKSKITEVLHRIANENPHRLIFGSDYGMCDPMAHIELVDRLPVSDETREMIFYKNAVGLYGLSRING,soluble
16,MYQSYPQQQQPGYQPQQPSHPIVGAGAAPTMAPQNPYGQQPFQPQFQQGQYQQPSGQQYQSMQQQFQSPQQQAPTQPTHPDRESYQTALPANVTPGWNDPPSMLPSAGTTPNRLSNMRRRPVDPSISGNVGYGTSSQTSNPYGASASPYGAPQQNPQQYQEQPQSYQTYQQPQQQQPQYGQQQNPQQFGQQYPGAGAPHQQQHYGM,not soluble
